Experimental data from patent US20240417436A1 (BRIGHT PEAK THERAPEUTICS, published 2024).
Primed or numbered codes have the meaning given here. [ ]: non-standard residue; d: D form. Ygp″ = O-(PEG8-amino)-tyrosine (O-(8x polyethylene glycol-amino)-tyrosine); Yn3″ = O-(PEG9-azido)-tyrosine (O-(9x polyethylene glycol-azido)-tyrosine); Ygp = O-(8x polyethylene glycol-amino)-tyrosine; Yn3 = O-(9x polyethylene glycol-azido)-tyrosine; hSer = N[C@@H](CCO)C(=O)O; Nle = CCCC[C@H](N)C(=O)O

B1: CMP-142, MMP2 cleaved (ligand)
chain: APTSSSTKKTQLQLEHLLLDLQKILNGINNYKNPKLTR[Nle]L[hSer][Yn3]KF[Ygp][Nle]PKKATELKHLQCLEEELKPLEEVL[hSer]LAQSKNFHLRPRDLISNINVIVLELKGSETTF[hSer]CEYADETATIVEFLNRWITFSQSIISTLT
modifications: not fully specified (residue 23); ends and bridges not checked; also: MMP2-cut remnant of cleavable moiety on Lys23 side chain, not given here
B2: CMP-128, MMP2 cleaved (ligand)
chain: APTSSSTKKTQLQLEHLLLDLQKILNGINNYKNPKLTR[Nle]L[hSer][Yn3″]KF[Ygp″][Nle]PKKATELKHLQCLEEELKPLEEVL[hSer]LAQSKNFHLRPRDLISNINVIVLELKGSETTF[hSer]CEYADETATIVEFLNRWITFSQSIISTLT
modifications: ends and bridges not checked; also: Lys23 side chain attached via PEG9 to cleavable peptide, MMP2-cleaved, remnant stays attached, cut site not given here
B3: CMP-129, MMP2 cleaved (ligand)
chain: APTSSSTKKTQLQLEHLLLDLQKILNGINNYKNPKLTR[Nle]L[hSer][Yn3″]KF[Ygp″][Nle]PKKATELKHLQCLEEELKPLEEVL[hSer]LAQSKNFHLRPRDLISNINVIVLELKGSETTF[hSer]CEYADETATIVEFLNRWITFSQSIISTLT
modifications: ends and bridges not checked; also: Lys23 side chain attached via PEG9 to cleavable peptide, MMP2-cleaved, remnant stays attached, cut site not given here
B4: CMP-120, MMP2 cleaved (ligand)
chain: APTSSSTKKTQLQLEHLLLDLQKILNGINNYKNPKLTR[Nle]L[hSer][Yn3″]KF[Ygp″][Nle]PKKATELKHLQCLEEELKPLEEVL[hSer]LAQSKNFHLRPRDLISNINVIVLELKGSETTF[hSer]CEYADETATIVEFLNRWITFSQSIISTLT
modifications: ends and bridges not checked; also: Lys23 side chain attached to cleavable peptide, MMP2-cleaved, remnant stays attached, cut site not given here
B5: CMP-123, MMP2 cleaved (ligand)
chain: APTSSSTKKTQLQLEHLLLDLQKILNGINNYKNPKLTR[Nle]L[hSer][Yn3″]KF[Ygp″][Nle]PKKATELKHLQCLEEELKPLEEVL[hSer]LAQSKNFHLRPRDLISNINVIVLELKGSETTF[hSer]CEYADETATIVEFLNRWITFSQSIISTLT
modifications: ends and bridges not checked; also: Lys23 side chain attached via PEG9 to cleavable peptide, MMP2-cleaved, remnant stays attached, cut site not given here
B6: CMP-143, MMP2 cleaved (ligand)
chain: APTSSSTKKTQLQLEHLLLDLQKILNGINNYKNPKLTR[Nle]L[hSer][Yn3]KF[Ygp][Nle]PKKATELKHLQCLEEELKPLEEVL[hSer]LAQSKNFHLRPRDLISNINVIVLELKGSETTF[hSer]CEYADETATIVEFLNRWITFSQSIISTLT
modifications: not fully specified (residue 23); ends and bridges not checked; also: MMP2-cut remnant of cleavable moiety on Lys23 side chain, not given here
B7: CMP-125, MMP2 cleaved (ligand)
chain: APTSSSTKKTQLQLEHLLLDLQKILNGINNYKNPKLTR[Nle]L[hSer][Yn3″]KF[Ygp″][Nle]PKKATELKHLQCLEEELKPLEEVL[hSer]LAQSKNFHLRPRDLISNINVIVLELKGSETTF[hSer]CEYADETATIVEFLNRWITFSQSIISTLT
modifications: ends and bridges not checked; also: cleavable moiety on Lys23 side chain, not given here
B8: CMP-119, MMP2 cleaved (ligand)
chain: APTSSSTKKTQLQLEHLLLDLQKILNGINNYKNPKLTR[Nle]L[hSer][Yn3″]KF[Ygp″][Nle]PKKATELKHLQCLEEELKPLEEVL[hSer]LAQSKNFHLRPRDLISNINVIVLELKGSETTF[hSer]CEYADETATIVEFLNRWITFSQSIISTLT
modifications: ends and bridges not checked; also: Lys23 side chain attached to cleavable peptide, MMP2-cleaved, remnant stays attached, cut site not given here
B9: CMP-124, MMP2 cleaved (ligand)
chain: APTSSSTKKTQLQLEHLLLDLQKILNGINNYKNPKLTR[Nle]L[hSer][Yn3″]KF[Ygp″][Nle]PKKATELKHLQCLEEELKPLEEVL[hSer]LAQSKNFHLRPRDLISNINVIVLELKGSETTF[hSer]CEYADETATIVEFLNRWITFSQSIISTLT
modifications: ends and bridges not checked; also: Lys23 side chain attached to cleavable peptide, MMP2-cleaved, remnant stays attached, cut site not given here
B10: CMP-126, MMP2 cleaved (ligand)
chain: APTSSSTKKTQLQLEHLLLDLQKILNGINNYKNPKLTR[Nle]L[hSer][Yn3″]KF[Ygp″][Nle]PKKATELKHLQCLEEELKPLEEVL[hSer]LAQSKNFHLRPRDLISNINVIVLELKGSETTF[hSer]CEYADETATIVEFLNRWITFSQSIISTLT
modifications: ends and bridges not checked; also: Lys23 side chain attached to cleavable peptide, MMP2-cleaved, remnant stays attached, cut site not given here
B11: CMP-122, MMP2 cleaved (ligand)
chain: APTSSSTKKTQLQLEHLLLDLQKILNGINNYKNPKLTR[Nle]L[hSer][Yn3″]KF[Ygp″][Nle]PKKATELKHLQCLEEELKPLEEVL[hSer]LAQSKNFHLRPRDLISNINVIVLELKGSETTF[hSer]CEYADETATIVEFLNRWITFSQSIISTLT
modifications: ends and bridges not checked; also: Lys23 side chain attached via PEG9 to cleavable peptide, MMP2-cleaved, remnant stays attached, cut site not given here
B12: CMP-127, MMP2 cleaved (ligand)
chain: APTSSSTKKTQLQLEHLLLDLQKILNGINNYKNPKLTR[Nle]L[hSer][Yn3″]KF[Ygp″][Nle]PKKATELKHLQCLEEELKPLEEVL[hSer]LAQSKNFHLRPRDLISNINVIVLELKGSETTF[hSer]CEYADETATIVEFLNRWITFSQSIISTLT
modifications: ends and bridges not checked; also: Lys23 side chain attached via PEG9 to cleavable peptide, MMP2-cleaved, remnant stays attached, cut site not given here
B13: CMP-118, MMP2 cleaved (ligand)
chain: APTSSSTKKTQLQLEHLLLDLQKILNGINNYKNPKLTR[Nle]L[hSer][Yn3″]KF[Ygp″][Nle]PKKATELKHLQCLEEELKPLEEVL[hSer]LAQSKNFHLRPRDLISNINVIVLELKGSETTF[hSer]CEYADETATIVEFLNRWITFSQSIISTLT
modifications: ends and bridges not checked; also: Lys23 side chain attached to cleavable peptide, MMP2-cleaved, remnant stays attached, cut site not given here
B14: CMP-141, MMP2 cleaved (ligand)
chain: APTSSSTKKTQLQLEHLLLDLQKILNGINNYKNPKLTR[Nle]L[hSer][Yn3]KF[Ygp][Nle]PKKATELKHLQCLEEELKPLEEVL[hSer]LAQSKNFHLRPRDLISNINVIVLELKGSETTF[hSer]CEYADETATIVEFLNRWITFSQSIISTLT
modifications: not fully specified (residue 23); ends and bridges not checked; also: MMP2-cleaved, remnant of moiety on Lys23 side chain, not given here

Target: T1, IL-2 receptor βγ complex on pan T cells (human, UniProt P14784 27-551; P31785 23-369)
T1 sequence (looked up) 1: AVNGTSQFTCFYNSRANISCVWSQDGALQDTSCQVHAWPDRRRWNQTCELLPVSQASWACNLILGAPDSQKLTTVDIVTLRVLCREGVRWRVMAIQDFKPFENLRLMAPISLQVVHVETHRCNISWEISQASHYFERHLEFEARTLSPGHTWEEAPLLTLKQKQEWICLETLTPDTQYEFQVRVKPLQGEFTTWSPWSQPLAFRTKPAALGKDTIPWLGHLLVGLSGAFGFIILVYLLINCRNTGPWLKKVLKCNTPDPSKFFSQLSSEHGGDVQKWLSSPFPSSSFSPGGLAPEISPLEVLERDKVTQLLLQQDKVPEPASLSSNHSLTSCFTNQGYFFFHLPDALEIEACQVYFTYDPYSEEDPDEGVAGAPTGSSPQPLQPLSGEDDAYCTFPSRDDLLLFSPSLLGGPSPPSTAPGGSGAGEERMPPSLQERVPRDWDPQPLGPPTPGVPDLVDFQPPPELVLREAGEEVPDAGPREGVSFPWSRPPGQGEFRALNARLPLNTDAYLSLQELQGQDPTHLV
T1 sequence (looked up) 2: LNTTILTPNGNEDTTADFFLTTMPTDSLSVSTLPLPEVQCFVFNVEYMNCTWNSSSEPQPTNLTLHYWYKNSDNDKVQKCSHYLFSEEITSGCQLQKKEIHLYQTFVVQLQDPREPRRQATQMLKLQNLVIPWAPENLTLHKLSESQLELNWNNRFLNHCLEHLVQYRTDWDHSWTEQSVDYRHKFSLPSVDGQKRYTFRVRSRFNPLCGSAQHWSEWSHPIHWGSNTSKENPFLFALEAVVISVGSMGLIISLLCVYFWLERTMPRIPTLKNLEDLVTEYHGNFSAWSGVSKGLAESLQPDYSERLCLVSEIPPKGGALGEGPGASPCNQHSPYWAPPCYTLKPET
Test: cell-based or functional assay

| Binder | Average EC50, pSTAT5 assay in pan T cells, MMP2 cleaved molecule [nM] |
| --- | --- |
| B1 | 0.56 |
| B2 | 3.68 |
| B3 | 1.4 |
| B4 | 0.7 |
| B5 | 2.93 |
| B6 | 1.99 |
| B7 | 1.73 |
| B8 | 0.63 |
| B9 | 2.07 |
| B10 | 2.03 |
| B11 | 3.55 |
| B12 | 2.43 |
| B13 | 0.9 |
| B14 | 0.8 |
